Experimental data reported in patent US20260209363A1 (Chugai, published 2026).

T1: human soluble IL-6R (human, UniProt P08887 20-357, limits assumed)
T1 construct: Soluble form; also called sIL6R; Human IL-6R
T1 sequence (looked up): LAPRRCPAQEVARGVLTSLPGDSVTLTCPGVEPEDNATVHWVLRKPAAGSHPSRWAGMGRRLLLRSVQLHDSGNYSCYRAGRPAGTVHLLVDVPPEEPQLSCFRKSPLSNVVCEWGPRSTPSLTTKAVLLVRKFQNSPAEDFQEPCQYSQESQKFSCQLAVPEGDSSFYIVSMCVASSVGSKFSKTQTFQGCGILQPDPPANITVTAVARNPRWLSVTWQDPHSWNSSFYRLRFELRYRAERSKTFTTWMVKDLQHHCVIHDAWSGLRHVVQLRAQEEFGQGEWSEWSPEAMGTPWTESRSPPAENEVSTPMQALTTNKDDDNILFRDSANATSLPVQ


Columns and labels:
[1] = target: T2, rat albumin (rat, UniProt P02770 25-608); experiment: inferred from reduced antigen complex in rat plasma (Gyrolab xP)
T2 construct: also called albumin in SD rat plasma

[2] = target: T1, human soluble IL-6R; experiment: in vivo KD in mouse plasma (albumin present), from total antibody, free and bound sIL6R 5 min after sIL6R; antibody 0.2 mg/kg IV
Description: (§1) Next, free sIL6R in plasma was measured. The concentration of free sIL6R in plasma was measured on a fully automated ELISA system (Gyrolab xP workstation). First, sIL6R prepared at 23.4, 46.9, 93.8, 188, 375, 750, and 1500 ng/mL using a Protein-Free (PBS) Blocking Buffer (Thermo Scientific) was used as solutions for preparing the calibration curve. Mouse plasma samples were used in the measurements without diluting them. A solution of biotin-labeled H54 diluted to 10 micro g/mL using a Protein-Free (PBS) Blocking Buffer was used as a solution of the sIL6R-capturing molecule. Alexa Fluor (registered trademark) 647-labeled anti-human IL-6R antibody (R&D Systems) diluted to 1 micro g/mL using a Protein-Free (PBS) Blocking Buffer was used as a solution of the human IL-6R-detection molecule. PBS (pH 7.4) containing 0.05% TWEEN was used as a washing solution. The calibration curve solutions, mouse plasma samples, sIL6R-capturing molecule solution, sIL6R-detection molecule solution, and the washing solution were placed onto a PCR plate, and then the PCR plate was sealed with a plate sealer. After the PCR plate and the Bioaffy 200 disc were placed in the Gyrolab xP workstation, measurements were taken. Using the data processed by the Gyros Evaluater 3.6.2.30 software and the calibration curve concentrations, the concentration of free sIL6R in plasma was calculated by logistic regression using the XLfit 5.5.0.5 software.
Additionally, bound sIL6R in plasma was measured. The concentration of bound sIL6R in plasma was measured on an electrospray ionization mass spectrometer connected to a high-performance liquid chromatography (LC/ESI-MS/MS). First, H54//IC17 and sIL6R were mixed, and solutions for preparing the calibration curve of bound sIL6R were prepared at theoretical plasma concentrations of 0.0468, 0.467, 4.60, and 20.1 nmol/mL. […]

[3] = target: T3, human albumin (human, UniProt P02768 25-609); experiment: inferred from reduced antigen complex in human plasma (Gyrolab xP)
T3 construct: also called albumin in human plasma

[4] = target: T1, human soluble IL-6R; experiment: Gyrolab xP immunoassay of antibody-antigen complex in C57BL/6J mouse plasma (albumin present), 1 nM antibody, 4 nM antigen
[5] = target: T1, human soluble IL-6R; experiment: SPR (Biacore T200), antibody captured on Protein G, human IL-6R as analyte, 37 degrees C, no albumin
Description: Binding activities of the produced albumin switch molecules against human IL-6R were evaluated using Biacore T200 (Cytiva). As the running buffer, 50 mM Na Phosphate (pH 7.4), 150 mM NaCl, 0.05% Tween20 was used, and the evaluation was performed at 37 degrees C. First, Protein G (CALBIOCHEM) was used as a ligand-capturing molecule. Protein G (CALBIOCHEM) was solid-phased on a Series S Sensor Chip CM4 (Cytiva) using an Amine Coupling Kit (Cytiva). Antibody solution prepared using the running buffer was allowed to interact with this CM4 sensor chip to capture approximately 200 RU of the antibody. Human IL-6R used in the present measurement was prepared by an approach described in WO2018097307 (Example 3-2). Human IL-6R was diluted to 0, 100, and 400 nM with the running buffer, and allowed to bind to the captured antibody. The chip was regenerated using 3 M MgCl₂, and measurements were performed by repeatedly capturing the antibodies. Dissociation constant (KD) of each antibody for human IL-6R was calculated using Biacore T200 Evaluation Software 2.0. Specifically, the association rate constant ka (L/mol/s) and the dissociation rate constant kd (1/s) were calculated by global fitting of the sensorgrams obtained by measurement with the 1:1 Langmuir binding model, and the dissociation constant KD (mol/L) was calculated from these values.

[6] = target: T1, human soluble IL-6R; experiment: in vivo KD in mouse plasma (albumin present), from total antibody, free and bound sIL6R 5 min after sIL6R; antibody 1 mg/kg IV
Description: as §1
Additionally, bound sIL6R in plasma was measured. The concentration of bound sIL6R in plasma was measured on an electrospray ionization mass spectrometer connected to a high-performance liquid chromatography (LC/ESI-MS/MS). First, H54//IC17 and sIL6R were mixed, and solutions for preparing the calibration curve of bound sIL6R were prepared at theoretical plasma concentrations of 0.0468, 0.467, 4.60, and 20.1 nmol/mL. The solutions for preparing the calibration curve and 1 or 2 micro L of a plasma sample were added to 75 or 150 micro g of magnetic beads (Magnosphere MS300/Carboxyl, JSR) to which anti-delta GK antibodies were solid-phased, and this was shaken at 25 degrees C. for one hour.

[7] = target: T4, mouse albumin (mouse, UniProt P07724 25-608); experiment: SPR (Biacore T200), antibody captured by anti-human Fc antibody, mouse albumin as analyte, 25 degrees C
T4 construct: also called recombinant mouse Albumin; mouse serum albumin
Description: Binding activities of the produced antibodies against mouse albumin were evaluated using Biacore T200 (Cytiva).
As the running buffer, 50 mM Na Phosphate (pH 7.4), 150 mM NaCl, 0.05% Tween20 was used, and the evaluation was performed at 25 degrees C. First, anti-human Fc antibody (Cytiva) was used as a ligand-capturing molecule. Anti-human Fc antibody (Cytiva) was solid-phased on a Series S Sensor Chip CM4 (Cytiva) using an Amine Coupling Kit (Cytiva). Antibody solution prepared using the running buffer was allowed to interact with this CM4 sensor chip to capture approximately 120 RU of the antibody. Mouse albumin (Bioscience) was diluted to 0 and 300 nM with the running buffer and allowed to bind to the captured antibody. The chip was regenerated using 3 M MgCl₂, and measurements were performed by repeatedly capturing the antibodies. Dissociation constant (KD) of each antibody for mouse albumin was calculated using Biacore T200 Evaluation Software 2.0. Specifically, the association rate constant ka (L/mol/s) and the dissociation rate constant kd (1/s) were calculated by global fitting of the sensorgrams obtained by measurement with the 1:1 Langmuir binding model, and the dissociation constant KD (mol/L) was calculated from these values.

T3 sequence (P02768 25-609 limits assumed): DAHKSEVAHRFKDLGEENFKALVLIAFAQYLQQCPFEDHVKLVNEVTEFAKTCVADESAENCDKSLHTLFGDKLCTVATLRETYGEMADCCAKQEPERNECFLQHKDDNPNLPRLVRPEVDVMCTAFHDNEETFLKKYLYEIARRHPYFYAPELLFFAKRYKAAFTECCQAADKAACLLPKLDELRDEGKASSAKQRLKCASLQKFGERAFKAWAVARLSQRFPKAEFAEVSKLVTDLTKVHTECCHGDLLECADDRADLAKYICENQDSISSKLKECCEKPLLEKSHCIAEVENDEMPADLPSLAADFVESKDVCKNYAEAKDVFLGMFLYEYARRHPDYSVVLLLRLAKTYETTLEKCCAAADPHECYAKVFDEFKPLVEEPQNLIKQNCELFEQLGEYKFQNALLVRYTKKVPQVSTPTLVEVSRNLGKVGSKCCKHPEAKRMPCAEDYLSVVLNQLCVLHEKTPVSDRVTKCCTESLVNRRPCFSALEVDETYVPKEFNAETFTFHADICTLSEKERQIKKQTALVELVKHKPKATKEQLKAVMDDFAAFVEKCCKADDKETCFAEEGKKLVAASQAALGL
T2 sequence (P02770 25-608 limits assumed): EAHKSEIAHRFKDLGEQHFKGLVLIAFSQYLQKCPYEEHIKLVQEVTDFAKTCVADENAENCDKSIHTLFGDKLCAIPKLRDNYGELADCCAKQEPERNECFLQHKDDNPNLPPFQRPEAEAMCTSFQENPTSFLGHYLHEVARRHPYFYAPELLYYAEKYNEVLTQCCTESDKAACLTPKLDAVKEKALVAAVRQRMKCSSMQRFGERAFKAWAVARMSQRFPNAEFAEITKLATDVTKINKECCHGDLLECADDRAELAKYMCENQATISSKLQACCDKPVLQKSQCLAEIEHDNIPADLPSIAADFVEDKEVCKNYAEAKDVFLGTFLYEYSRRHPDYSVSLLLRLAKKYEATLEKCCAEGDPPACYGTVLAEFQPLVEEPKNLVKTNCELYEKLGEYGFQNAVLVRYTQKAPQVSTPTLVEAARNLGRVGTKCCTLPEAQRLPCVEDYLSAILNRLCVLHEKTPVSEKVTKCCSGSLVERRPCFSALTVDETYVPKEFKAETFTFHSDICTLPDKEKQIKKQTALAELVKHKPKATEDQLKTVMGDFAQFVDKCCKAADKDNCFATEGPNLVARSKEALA

binding result [1] | Kd [2] | binding result [3] | decrease in the signal derived from the complex, compared to H54//IC17 [4] | Kd [5] | koff [5] | kon [5] | Kd [6] | Kd [7] | koff [7] | kon [7] | Binder
binds | 141 nM | binds | 95% | 3.7 nM | 0.000779 s⁻¹ | 210000 M⁻¹ s⁻¹ | 306 nM | 19.4 nM | 0.00112 s⁻¹ | 57600 M⁻¹ s⁻¹ | ABD094(H/L)-H54//IC17 (bispecific antibody, human IgG1, kappa, also called anti-IL6R albumin switch molecule) heavy 1: LAEAKEAANAELDSYGVSDFYKRLIDKAKTVEGVEALKDAILAALPQVQLQESGPGLVKPSETLSLTCAVSGYSISDDQAWSWVRQPPGEGLEWIGYISYSGITNYNPSLKGRVTISRDTSKNQFSLKLSSVTAADTAAYYCARSLARTTAMDYWGEGTLVTVSSASTKGPSVFPLAPSSKSTSGGTAALGCLVEDYFPEPVTVSWNSGALTSGVHTFPAVLQSSGLYSLSSVVTVPSSSLGTQTYICNVNHKPSNTKVDERVEPKSCDKTHTCPPCPAPELRRGPSVFLFPPKPKDTLMISRTPEVTCVVVDVSHEDPEVKFNWYVDGVEVHNAKTKPREEQYNSTYRVVSVLTVLHQDWLNGKEYKCKVSNKALPAPIEKTISKAKGQPREPQVCTLPPSREEMTKNQVSLSCAVKGFYPSDIAVEWESNGQPENNYKTTPPVLDSDGSFFLVSKLTVDKSRWQQGNVFSCSVMHEALHNHYTQKSLSLSP light 1: LAEAKEAANAELDSYGVSDFYKRLIDKAKTVEGVEALKDAILAALPDIQMTQSPSSLSASVGDSVTITCQASQDISSYLNWYQQKPGKAPELLIYYGSELHSGVPSRFSGSGSGTDFTFTISSLEAEDAATYYCQQGNSLPYTFGQGTKVEIERTVAAPSVFIFPPSDRKLKSGTASVVCLLNNFYPREAKVQWKVDNALQSGNSQESVTEQDSKDSTYSLSSTLTLSKADYEKHKVYACEVTHQGLSSPVTKSFNRGEC heavy 2: not shown light 2: QVQLQQSGPQLVRPGASVKISCKASGYSFTSYWMHWVNQRPGQGLEWIGMIDPSYSETRLNQKFKDKATLTVDKSSSTAYMQLSSPTSEDSAVYYCALYGNYFDYWGQGTTLTVSSASVAAPSVFIFPPSDEQLKSGTASVVCLLNNFYPREAKVQWKVDNALQSGNSQESVTEQDSKDSTYSLSSTLTLSKADYEKHKVYACEVTHQGLSSPVTKSFNRGEC
binds | 2 nM | binds | – | 2.02 nM | 0.000951 s⁻¹ | 471000 M⁻¹ s⁻¹ | 13.4 nM | 10.2 nM | 0.000443 s⁻¹ | 43500 M⁻¹ s⁻¹ | ABP(H/L).N13-H54//IC17 (bispecific antibody, human IgG1, kappa, also called ABP(H/L)-H54//IC17) heavy 1: QRLMEDICLPRWGCLWEDDFGGGSQVQLQESGPGLVKPSETLSLTCAVSGYSISDDQAWSWVRQPPGEGLEWIGYISYSGITNYNPSLKGRVTISRDTSKNQFSLKLSSVTAADTAAYYCARSLARTTAMDYWGEGTLVTVSSASTKGPSVFPLAPSSKSTSGGTAALGCLVEDYFPEPVTVSWNSGALTSGVHTFPAVLQSSGLYSLSSVVTVPSSSLGTQTYICNVNHKPSNTKVDERVEPKSCDKTHTCPPCPAPELRRGPSVFLFPPKPKDTLMISRTPEVTCVVVDVSHEDPEVKFNWYVDGVEVHNAKTKPREEQYNSTYRVVSVLTVLHQDWLNGKEYKCKVSNKALPAPIEKTISKAKGQPREPQVCTLPPSREEMTKNQVSLSCAVKGFYPSDIAVEWESNGQPENNYKTTPPVLDSDGSFFLVSKLTVDKSRWQQGNVFSCSVMHEALHNHYTQKSLSLSP light 1: QRLMEDICLPRWGCLWEDDFGGGSDIQMTQSPSSLSASVGDSVTITCQASQDISSYLNWYQQKPGKAPELLIYYGSELHSGVPSRFSGSGSGTDFTFTISSLEAEDAATYYCQQGNSLPYTFGQGTKVEIERTVAAPSVFIFPPSDRKLKSGTASVVCLLNNFYPREAKVQWKVDNALQSGNSQESVTEQDSKDSTYSLSSTLTLSKADYEKHKVYACEVTHQGLSSPVTKSFNRGEC heavy 2: not shown light 2: QVQLQQSGPQLVRPGASVKISCKASGYSFTSYWMHWVNQRPGQGLEWIGMIDPSYSETRLNQKFKDKATLTVDKSSSTAYMQLSSPTSEDSAVYYCALYGNYFDYWGQGTTLTVSSASVAAPSVFIFPPSDEQLKSGTASVVCLLNNFYPREAKVQWKVDNALQSGNSQESVTEQDSKDSTYSLSSTLTLSKADYEKHKVYACEVTHQGLSSPVTKSFNRGEC
